Source: patent US20240026407A1, “MODIFICATION OF SAPONINS” (GLAXOSMITHKLINE BIOLOGICALS SA, priority 2020, published 2024)

What was measured:
Type in all cases: biochemical, Quillaja saponaria
[1] = Experiment 6-1: screening of rhamnosidases for derhamnosylation of saponins in treated bark extract (2%), QS-17 2296 to QS-18 2150 (PAR %); conditions: TBE 2%, pH 7.5, 30 degC, 18 h; TIC peak area ratio percent of rhamnosylated starting saponin to derhamnosylated product, LCMS/MS; negative controls 4.876, 5.225
[2] = Experiment 6-1: screening of rhamnosidases for derhamnosylation of saponins in treated bark extract (2%), desglucosyl-QS-17 2134 to QS-21 1988 (PAR %); conditions: TBE 2%, pH 7.5, 30 degC, 18 h; TIC peak area ratio percent, LCMS/MS; negative controls 2.719, 2.158
[3] = Experiment 6-1: screening of rhamnosidases for derhamnosylation of saponins in treated bark extract (2%), QS-17 2310 to QS-18 2164 (PAR %); conditions: TBE 2%, pH 7.5, 30 degC, 18 h; TIC peak area ratio percent, LCMS/MS; negative controls 3.061, 2.429
[4] = Experiment 6-2: screening of rhamnosidases for derhamnosylation of saponins in treated bark extract (25%), relative % of Left, Middle and Right Peak by UV HPLC; conditions: TBE 25%, pH 7.4, 19.5 h; for Left Peak: mainly QS-17 family, negative control 24%; for Middle Peak: mainly QS-18 and desglucosyl-QS-17 family, negative control 50%; for Right Peak: mainly QS-21 family, negative control 26%
[5] = Experiment 6-3: screening of rhamnosidases for derhamnosylation of saponins in crude bark extract (80%), relative % of Left, Middle and Right Peak by UV HPLC; conditions: CBE 80%, pH 7.4, 30 degC, 19.5 h; for Left Peak: mainly QS-17 family, negative control 27%; for Middle Peak: mainly QS-18 and desglucosyl-QS-17 family, negative control 48%; for Right Peak: mainly QS-21 family, negative control 26%
Procedure: Selected variants were expressed and lysed as in the method of experiment 6-1.
Crude bark extract (CBE) solution was adjusted to pH 7.4 by addition of NaOH (2M). 20 uL clarified lysate was transferred into fresh 96 well PCR plates. 80 uL CBE solution (pH 7.4) was added to each well of lysate to a final concentration of 80%. Plates were incubated at 30 degC with shaking for 19.5 h.
Quenched with 100 uL MeCN+2% AcOH and shaken at room temperature for 10 mins prior to centrifugation (10 min, 4 degC) to remove particulates. Samples were analysed by UV HPLC using method of Experiment 4-4.
Three key peaks of interest are apparent using this chromatography: Left Peak (retention time approximately 2.30-2.35 min) comprising mainly QS-17 family components; Middle Peak (retention time approximately 2.37-2.42 min) comprising mainly QS-18 family components and desglucosyl-QS-17 family components; and Right Peak (retention time approximately 2.44-2.50 min) comprising mainly QS-21 family components. Peak identity was supported by MS/MS.
Enzyme mediated hydrolysis of the alpha-O-rhamnosylation at the C2 position of the arabinofuranose moiety of QS-17 family components leads to a decrease in Left Peak and an increase in Middle Peak due to formation of QS-18 family components. Enzyme mediated hydrolysis of the alpha-O-rhamnosylation at the C2 position of the arabinofuranose moiety of desglucosyl-QS-17 family components leads to a decrease in Middle Peak and an increase in Right Peak due to formation of QS-21 family components.
The relative percentage of each peak was determined. A decrease in Left Peak and a concomitant increase in Middle Peak and Right Peak is observed for enzymes active under these conditions.

[6] = Experiment 6-1: specificity of rhamnosidases towards other rhamnose residues (C3 saccharide rhamnose, C28 saccharide rhamnose); conditions: TBE 2%, pH 7.5, 30 degC, 18 h; LCMS/MS; negative controls 0.18, 0.17

B1: 1027 (protein, listed as Dictyoglomus thermophilum)
chain: MKSSNIYSPFDLKCEFTTNPLGVDKKNPIFSWKLRHLEKNEKQTAYQVIVSSSLETINDNIGDVWDTGKVLSSEQVIKYEGKELEPCKVYFWKVRWWDSKDQESPFSVVNTFETGLMNEENWKAKWITKKEHKYEVYSPDGAPFGLNYTIAYAPMFRKSFSISKKIKRARVYIAGLGLYELYINGERIGDRVLDPGQTDYKKRVLYTVYDVSKNIRDGKNAIGVILGNGRYVKEYGYDFPKLIIQVLVEYEDDSIEWIVSDESWKTTYGPITLNSLYHGEIYDGRKEIKGWNLPDFDDSTWENAILAEPPGGKLYSEIYPPIRITKTIKPIKMWSPEPGTYVYDFGQNYTGWIKIKVRTNESGKEIRIRHAELTYEDGTLNYSTNRTALATDVYITKGEGYEEYEPRFTYHGFRYVEILGYPGVPTLEDIEGKVVHTAVESNGEFICSNELINKIHHNIIWGQLSNLMSIPTDCPQRDERMGWMGDAQLSAEEAIFNFDMIGFYRKYLNDIRDAQKENGSLSDVIPPYWSIYPGDPAWSTAYITIAWYLYQYYGDKYVLEEHYEGFKKYVEFLKKLAPDYIVSFYKYGDWCQPGTVRPKDNSGELTSTFYFYHDVITLSKIAKLLGKEADYKYYSELADKIKSAFNKKFLKEKAYASIPTELSEENVKALLEKYPEDIKDFLRQQFTILSSLGMFTSQTLNTLPLYLNLVPEDKVQDVLKTLLEDIIIRHDYHLDTGIVATRYIFDVLTSYGYDEVAYKIVNQKTYPSFGYMIEEGATTLWERWEKLTSTGMNSHNHIMFGSVDAWFYRVIAGVRVGEPGWNKIIFEPHPVGDLKYAKARLNTIKGEVEINWQKTENIFSMRISVPVNSEGEVHVPKLFERFVVKEGDNIIYEKKGDLEENEKYIVIRVGSGSYNFYMEKI
QS-17 (PAR %) [1]: 0.324% | Peak75 (PAR %) [2]: 0.094% | Peak57 (PAR %) [3]: 0.053% | Left Peak [4]: 18% | Middle Peak [4]: 55% | Right Peak [4]: 27% | Left Peak [5]: 26% | Middle Peak [5]: 48% | Right Peak [5]: 26% | ratio PP/QS-21 [6]: 0.19

B2: 989 (protein, listed as Rhodothermus marinus)
chain: MVLLFLGGAKEGAAQSNQALQVASLRTEYLVNPIGIEVRQPRLSWQLQSDRRDVRQVAYQIQVATSREALARGRDLVWDSGRVESDQSVFVPYGGPALQRRQRYYWRVRVWDNHGRSSAWSEPAFWEMGLLSPDEWRAQWITYNWEEDTSQPQPAPMLRRTFRVEGRVRRARLYITSLGLYEAHLNGRRVGDQLFTPGWTSYHHRLQYQTYDVTDLLRPGENALGVILGDGWYRGYLTWSVRRNVYGDRLALLAQLEITYEDGRTQVVTSDPDWKATTGPIRMSDIYMGEIYDARLEKEGWTEPGYDDSDWRGVRVLEHPKDILIAPIGPPVRRIQEIRPVAILYTPAGDTVVDMGQNMVGWVRLRVRGPAGTVVTLRHAEVLDKHGNFYTENLRRARQTDQYILKGEGEEVFEPHFTFHGFRYVAVSGYPGELTPEAITGIVIHSAFEPTGTWVSSDSLLNRLQLNIQWGMKGNFLDVPTDCPQRDERLGWTGDAQVFARTAMFNGLVGGFFTKWLGDVAADQSPEGAVPHVVPNVLPSFAGRFPGGATGWADAAVVIPWTMYQVYGDRRILEVQYPSMKAWVEYMRREAGDDLIWDTGFHFGDWLAFVPEENVRRAYPGATTGRDFLATAYFAYSTRLLAQAAEVIGKTDEARHYRQLYEAIREAFNREFVTPNGRVAQATQTAYTLAIQFDLLPEHLRAEAGRRLAEDVRAHNMHLTTGFLGTPQLLHALSNTGQLDVAYTLLRQTTYPSWLYQVKMGATTMWERWDSIKPDSTFQDPSMNSFNHYAYGSVGDWMYRVVAGIDTETPGYQRLRIAPQPGGGLKWVQARYHSLYGEVASSWELVDPQTFVLEVTIPPNTTATVRLPGAQLASVQEGRQPVQSAAGVHRAYQDGADVVVEVGSGTYRFTYSPSAELVRRIQTQPEVGQPVTMSF
QS-17 (PAR %) [1]: 0.516% | Peak75 (PAR %) [2]: 0.478% | Peak57 (PAR %) [3]: 0.305% | Left Peak [4]: 19% | Middle Peak [4]: 54% | Right Peak [4]: 26% | Left Peak [5]: 29% | Middle Peak [5]: 43% | Right Peak [5]: 27% | ratio PP/QS-21 [6]: 0.18

B3: 1039 (protein, listed as Lactobacillus acidophilus)
chain: MKITNILVNQMEHPLGFDLSNLRITFELTEMENIIGNVYKNISVGKVESEQPIYFEPDELYENNAFKINMELEPRTKYWVKIGVRNDNEVTSSNTWFETGKMDEKFYGKWITNKKDVENTLFKKDFELANKQIKSARLYSTTLGVYEVDLNGVKVGNEFLAPGFTNYDKIVQLQTYDVTKLVTKNSNNELVFSVGDGWYKGNLGFDGGQTNIYGDKKSILAELHVTYTDNSEQVISTDSSWLTTEGKIIKSSIYYGEDIDDTKDILDWSSVVILNKSTSIVRDRLSLPIMKKEVLKVKEIIHTPKNEIVLDFGQNHAGWPVFINRLARGKKITLQMGEILQDGNFYNKNLRLARAAFTYISDGEEKLIRPHFTYFGFRYVKISGVTDVNKDDFESWVLYSDLKQTGFIKTNNDKVNRLFKNVIWGQKSNFMDVPTDCPQRDERLGWTGDAEIFAPTASFNMNTYEFYKKYAKDMLVEQEDNKGMLPIIVPSLKQKSTGMAIWSDAATIIPWVTYRFFDDLGVLKQNYSQMKNWVDWITQNTKTKYLWIGQMQLGDWLSLDNGANPQGKTNEDYIASIYYFVSASIVSKAARLLHYDMESDYYENLARNIKTNILNEFVTEKGRIAIDTQTALVLALHFGLVHDYQKSQVVADLVKKVKDDNKHLQTGFVGTPFLLSVLSNNNQHHLAMDIFMQEDCPSWLYEVNMGATTIWERWNSVLPDGKMNPEGMNSLNHYSFGAVMMWMYQCVVGLNQFDAGFKEIYFAPKFDCRLKDIYSEFDSTYGKIKVEYHLETNEKHLIRMNLVIPFGVKMKVKLPRSAKYLINGKEKIGIVKLEYGKYDISYIPTKSYLNYYDLNSKLVDILDNNDLVKRIDQIDEKILQKVKRMGNTRSIFINKKIDELLDFEEISQEEKNQLVDILHKTIFIKLNLF
QS-17 (PAR %) [1]: 0.492% | Peak75 (PAR %) [2]: 0.683% | Peak57 (PAR %) [3]: 0.000% | Left Peak [4]: 16% | Middle Peak [4]: 57% | Right Peak [4]: 27% | Left Peak [5]: 25% | Middle Peak [5]: 48% | Right Peak [5]: 27% | ratio PP/QS-21 [6]: 0.18

B4: 1041 (protein)
chain: MRAIRLRTEYLTEPLGLGITAPRLYWNADGGLRQTAYQVVARRGGETVWDTGKVASSRMTHVRYEGVPLGSRDRVDWSVVLWDEAGAAGPPAESWFELGLLDPADWTAEWITGDYTPEPDVRYPVDHFRRDFRVREPVLAARLYITAAGVYEAVLNGEPVSEARLGPGATDYRHRLHYQTFDVTSLLAADNVLEVRLADGWYRGSLGAFGATHVFGRETRLLAQLELTYPDGSTETVGSDERFRWSDDGPVRFADLQDGEVYDARLAPSYSGHARITTETMIPTAADNVPVTEHERFPARLLTTPSGARVLDFGQNLAGFVAFTVSGRAGQRLTLRLGEILDGAGEFTQRNFQLRKPVHEFGRDVEILLLTGQESEIKGELQPTPKQEVVFTASGGTDHYVTRFAVFGFRYALVETDLDIDPADFEAIAVYSAMEQTGTCVTSHEGVNRFLENTRWSMKGNFLDVPTDCPTRERLGWTGDAQVFFDTAAYLMDVGAFFRKWLRDVRDGQLADGKLSAVIPYNGTSMLYDTTGGSVGWADAVVLIPYRYWKRYGDESILRDCYDAMRRYAMFMITNAGPLDPEAAADNPHARYLYEKGVHLGDWLEAAEFRDPSPGRTPMPEEATAYLHYTMTHLAEIATVLGETADADLFAEYAQGAKAAYTHQFLRDGTLDTDRQAKLVRPLALGLADGDVKRRLEDRLVQAVKNRDFHVNTGFLSTPFVLPTLTAAGHPEIAYRMLDNEDAPSWLAEVKAGATTVWEDWEGKESRNHYSPGAVCQWLFDTVAGLRVTGENHFTIAPVPGGSLTSAQARYTSVYGTVASSWTRTGTDLHLTVTLPPNTTADVRLPNGTEHVVGPGTHEYTA
modifications: Frankia inefficax
QS-17 (PAR %) [1]: 0.507% | Peak75 (PAR %) [2]: 0.000% | Peak57 (PAR %) [3]: 0.000% | Left Peak [4]: 15% | Middle Peak [4]: 55% | Right Peak [4]: 30% | Left Peak [5]: 25% | Middle Peak [5]: 48% | Right Peak [5]: 27% | ratio PP/QS-21 [6]: 0.16
